Assay results: the supplement of paper PMC5998384

Assays:
HeLa Kyoto [1] = test: solubility change mitosis vs G1/S (difference of NP-40 vs SDS log2 ratios) (log2 ratio difference); higher = more soluble in mitosis
HeLa Kyoto [2] = test: solubility in G1/S (NP-40 vs SDS abundance) (log2 ratio); higher = more soluble; conditions: cell cycle stage: G1/S
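Wherever solubility change mitosis vs G1/S (difference of NP-40 vs SDS log2 ratios) is given: synchronized HeLa Kyoto cells (double thymidine block for G1/S, nocodazole release for mitosis), protein amounts in NP-40 versus SDS lysates quantified by mass spectrometry, three biological replicates.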
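Wherever solubility in G1/S (NP-40 vs SDS abundance) is given: HeLa Kyoto cells arrested at G1/S by double thymidine block, proteins quantified by TMT10plex mass spectrometry in mild NP-40 versus SDS extracts, three biological replicates.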

Substance	solubility change mitosis (log2) (HeLa Kyoto [1])	solubility in G1/S (log2) (HeLa Kyoto [2])
MSVSARSAAAEERSVNSSTMVAQQKNLEGYVGFANLPNQVYRKSVKRGFEFTLMVVGESGLGKSTLINSLFLTDLYSPEYPGPSHRIKKTVQVEQSKVLIKEGGVQLLLTIVDTPGFGDAVDNSNCWQPVIDYIDSKFEDYLNAESRVNRRQMPDNRVQCCLYFIAPSGHGLKPLDIEFMKRLHEKVNIIPLIAKADTLTPEECQQFKKQIMKEIQEHKIKIYEFPETDDEEENKLVKKIKDRLPLAVVGSNTIIEVNGKRVRGRQYPWGVAEVENGEHCDFTILRNMLIRTHMQDLKDVTNNVHYENYRSRKLAAVTYNGVDNNKNKGQLTKSPLAQMEEERREHVAKMKKMEMEMEQVFEMKVKEKVQKLKDSEAELQRRHEQMKKNLEAQHKELEEKRRQFEDEKANWEAQQRILEQQNSSRTLEKNKKKGKIF [SEPT7]	0.00373	0.245
MGRKKIQIQRITDERNRQVTFTKRKFGLMKKAYELSVLCDCEIALIIFNHSNKLFQYASTDMDKVLLKYTEYNEPHESRTNADIIETLRKKGFNGCDSPEPDGEDSLEQSPLLEDKYRRASEELDGLFRRYGSTVPAPNFAMPVTVPVSNQSSLQFSNPSGSLVTPSLVTSSLTDPRLLSPQQPALQRNSVSPGLPQRPASAGAMLGGDLNSANGACPSPVGNGYVSARASPGLLPVANGNSLNKVIPAKSPPPPTHSTQLGAPSRKPDLRVITSQAGKGLMHHLTEDHLDLNNAQRLGVSQSTHSLTTPVVSVATPSLLSQGLPFSSMPTAYNTDYQLTSAELSSLPAFSSPGGLSLGNVTAWQQPQQPQQPQQPQPPQQQPPQPQQPQPQQPQQPQQPPQQQSHLVPVSLSNLIPGSPLPHVGAALTVTTHPHISIKSEPVSPSRERSPAPPPPAVFPAARPEPGDGLSSPAGGSYETGDRDDGRGDFGPTLGLLRPAPEPEAEGSAVKRMRLDTWTLK [MEF2D]	0.0539	0.219
NAV2	0.109	-0.147
MPVQAPQWTDFLSCPICTQTFDETIRKPISLGCGHTVCKMCLNKLHRKACPFDQTTINTDIELLPVNSALLQLVGAQVPEQQPITLCSGVEDTKHYEEAKKCVEELALYLKPLSSARGVGLNSTTQSVLSRPMQRKLVTLVHCQLVEEEGRIRAMRAARSLGERTVTELILQHQNPQQLSSNLWAAVRARGCQFLGPAMQEEALKLVLLALEDGSALSRKVLVLFVVQRLEPRFPQASKTSIGHVVQLLYRASCFKVTKRDEDSSLMQLKEEFRTYEALRREHDSQIVQIAMEAGLRIAPDQWSSLLYGDQSHKSHMQSIIDKLQTPASFAQSVQELTIALQRTGDPANLNRLRPHLELLANIDPSPDAPPPTWEQLENGLVAVRTVVHGLVDYIQNHSKKGADQQQPPQHSKYKTYMCRDMKQRGGCPRGASCTFAHSQEELEKFRKMNKRLVPRRPLSASLGQLNEVGLPSAAILPDEGAVDLPSRKPPALPNGIVSTGNTVTQLIPRGTDPSYDSSLKPGKIDHLSSSAPGSPPDLLESVPKSISALPVNPHSIPPRGPADLPPMPVTKPLQMVPRGSQLYPAQQTDVYYQDPRGAAPPFEPAPYQQGMYYTPPPQCVSRFVRPPPSAPEPAPPYLDHYPPYLQERVVNSQYGTQPQQYPPIYPSHYDGRRVYPAPSYTREEIFRESPIPIEIPPAAVPSYVPESRERYQQIESYYPVAPHPTQIRPSYLREPPYSRLPPPPQPHPSLDELHRRRKEIMAQLEERKVISPPPFAPSPTLPPTFHPEEFLDEDLKVAGKYKGNDYSQYSPWSCDTIGSYIGTKDAKPKDVVAAGSVEMMNVESKGMRDQRLDLQRRAAETSDDDLIPFGDRPTVSRFGAISRTSKTIYQGAGPMQAMAPQGAPTKSINISDYSPYGTHGGWGASPYSPHQNIPSQGHFSERERISMSEVASHGKPLPSAEREQLRLELQQLNHQISQQTQLRGLEAVSNRLVLQREANTLAGQSQPPPPPPPKWPGMISSEQLSLELHQVEREIGKRTRELSMENQCSLDMKSKLNTSKQAENGQPEPQNKVPAEDLTLTFSDVPNGSALTQENISLLSNKTSSLNLSEDPEGGGDNNDSQRSGVTPSSAP [RC3H1]	-0.0375	0.308
MYTITKGPSKLVAQRRTGPTQQQVEGRLGELLKCRQPAPPTSQPPRAQPFAQPPGPWPLSSPGPRLVFNRVNGRRAPSTSPSFEGTQETYTVAHEENVRFVSEAWQQVQQQLDGGPAGEGGPRPVQYVERTPNPRLQNFVPIDLDEWWAQQFLARITSCS [FAM195A]	0.195	-0.457
MPLGLKPTCSVCKTTSSSMWKKGAQGEILCHHCTGRGGAGSGGAGSGAAGGTGGSGGGGFGAATFASTSATPPQSNGGGGGKQSKQEIHRRSARLRNTKYKSAPAAEKKVSTKGKGRRHIFKLKNPIKAPESVSTIITAESIFYKGVYYQIGDVVSVIDEQDGKPYYAQIRGFIQDQYCEKSAALTWLIPTLSSPRDQFDPASYIIGPEEDLPRKMEYLEFVCHAPSEYFKSRSSPFPTVPTRPEKGYIWTHVGPTPAITIKESVANHL [GATAD1]	0.25	-0.0455
MDIAIHHPWIRRPFFPFHSPSRLFDQFFGEHLLESDLFPTSTSLSPFYLRPPSFLRAPSWFDTGLSEMRLEKDRFSVNLDVKHFSPEELKVKVLGDVIEVHGKHEERQDEHGFISREFHRKYRIPADVDPLTITSSLSSDGVLTVNGPRKQVSGPERTIPITREEKPAVTAAPKK [CRYAB]	0.00397	-0.171
MLRTAMGLRSWLAAPWGALPPRPPLLLLLLLLLLLQPPPPTWALSPRISLPLGSEERPFLRFEAEHISNYTALLLSRDGRTLYVGAREALFALSSNLSFLPGGEYQELLWGADAEKKQQCSFKGKDPQRDCQNYIKILLPLSGSHLFTCGTAAFSPMCTYINMENFTLARDEKGNVLLEDGKGRCPFDPNFKSTALVVDGELYTGTVSSFQGNDPAISRSQSLRPTKTESSLNWLQDPAFVASAYIPESLGSLQGDDDKIYFFFSETGQEFEFFENTIVSRIARICKGDEGGERVLQQRWTSFLKAQLLCSRPDDGFPFNVLQDVFTLSPSPQDWRDTLFYGVFTSQWHRGTTEGSAVCVFTMKDVQRVFSGLYKEVNRETQQWYTVTHPVPTPRPGACITNSARERKINSSLQLPDRVLNFLKDHFLMDGQVRSRMLLLQPQARYQRVAVHRVPGLHHTYDVLFLGTGDGRLHKAVSVGPRVHIIEELQIFSSGQPVQNLLLDTHRGLLYAASHSGVVQVPMANCSLYRSCGDCLLARDPYCAWSGSSCKHVSLYQPQLATRPWIQDIEGASAKDLCSASSVVSPSFVPTGEKPCEQVQFQPNTVNTLACPLLSNLATRLWLRNGAPVNASASCHVLPTGDLLLVGTQQLGEFQCWSLEEGFQQLVASYCPEVVEDGVADQTDEGGSVPVIISTSRVSAPAGGKASWGADRSYWKEFLVMCTLFVLAVLLPVLFLLYRHRNSMKVFLKQGECASVHPKTCPVVLPPETRPLNGLGPPSTPLDHRGYQSLSDSPPGSRVFTESEKRPLSIQDSFVEVSPVCPRPRVRLGSEIRDSVV [SEMA4B]	-0.0944	0.234
MASGDLYEVERIVDKRKNKKGKWEYLIRWKGYGSTEDTWEPEHHLLHCEEFIDEFNGLHMSKDKRIKSGKQSSTSKLLRDSRGPSVEKLSHRPSDPGKSKGTSHKRKRINPPLAKPKKGYSGKPSSGGDRATKTVSYRTTPSGLQIMPLKKSQNGMENGDAGSEKDERHFGNGSHQPGLDLNDHVGEQDMGECDVNHATLAENGLGSALTNGGLNLHSPVKRKLEAEKDYVFDKRLRYSVRQNESNCRFRDIVVRKEEGFTHILLSSQTSDNNALTPEIMKEVRRALCNAATDDSKLLLLSAVGSVFCSGLDYSYLIGRLSSDRRKESTRIAEAIRDFVKAFIQFKKPIVVAINGPALGLGASILPLCDIVWASEKAWFQTPYATIRLTPAGCSSYTFPQILGVALANEMLFCGRKLTAQEACSRGLVSQVFWPTTFSQEVMLRVKEMASCSAVVLEESKCLVRSFLKSVLEDVNEKECLMLKQLWSSSKGLDSLFSYLQDKIYEV [CDYL2]	0.436	-1.07
MNSGRPETMENLPALYTIFQGEVAMVTDYGAFIKIPGCRKQGLVHRTHMSSCRVDKPSEIVDVGDKVWVKLIGREMKNDRIKVSLSMKVVNQGTGKDLDPNNVIIEQEERRRRSFQDYTGQKITLEAVLNTTCKKCGCKGHFAKDCFMQPGGTKYSLIPDEEEEKEEAKSAEFEKPDPTRNPSRKRKKEKKKKKHRDRKSSDSDSSDSESDTGKRARHTSKDSKAAKKKKKKKKHKKKHKE [ZCCHC17]	0.661	-1.32
MSWLFPLTKSASSSAAGSPGGLTSLQQQKQRLIESLRNSHSSIAEIQKDVEYRLPFTINNLTININILLPPQFPQEKPVISVYPPIRHHLMDKQGVYVTSPLVNNFTMHSDLGKIIQSLLDEFWKNPPVLAPTSTAFPYLYSNPSGMSPYASQGFPFLPPYPPQEANRSITSLSVADTVSSSTTSHTTAKPAAPSFGVLSNLPLPIPTVDASIPTSQNGFGYKMPDVPDAFPELSELSVSQLTDMNEQEEVLLEQFLTLPQLKQIITDKDDLVKSIEELARKNLLLEPSLEAKRQTVLDKYELLTQMKSTFEKKMQRQHELSESCSASALQARLKVAAHEAEEESDNIAEDFLEGKMEIDDFLSSFMEKRTICHCRRAKEEKLQQAIAMHSQFHAPL [VPS37A]	-0.0301	0.656
MDPRGILKAFPKRQKIHADASSKVLAKIPRREEGEEAEEWLSSLRAHVVRTGIGRARAELFEKQIVQHGGQLCPAQGPGVTHIVVDEGMDYERALRLLRLPQLPPGAQLVKSAWLSLCLQERRLVDVAGFSIFIPSRYLDHPQPSKAEQDASIPPGTHEALLQTALSPPPPPTRPVSPPQKAKEAPNTQAQPISDDEASDGEETQVSAADLEALISGHYPTSLEGDCEPSPAPAVLDKWVCAQPSSQKATNHNLHITEKLEVLAKAYSVQGDKWRALGYAKAINALKSFHKPVTSYQEACSIPGIGKRMAEKIIEILESGHLRKLDHISESVPVLELFSNIWGAGTKTAQMWYQQGFRSLEDIRSQASLTTQQAIGLKHYSDFLERMPREEATEIEQTVQKAAQAFNSGLLCVACGSYRRGKATCGDVDVLITHPDGRSHRGIFSRLLDSLRQEGFLTDDLVSQEENGQQQKYLGVCRLPGPGRRHRRLDIIVVPYSEFACALLYFTGSAHFNRSMRALAKTKGMSLSEHALSTAVVRNTHGCKVGPGRVLPTPTEKDVFRLLGLPYREPAERDW [POLL]	-0.00139	0.0728
ALG12	-0.0892	-0.268
MQPGSSRCEEETPSLLWGLDPVFLAFAKLYIRDILDMKESRQVPGVFLYNGHPIKQVDVLGTVIGVRERDAFYSYGVDDSTGVINCICWKKLNTESVSAAPSAARELSLTSQLKKLQETIEQKTKIEIGDTIRVRGSIRTYREEREIHATTYYKVDDPVWNIQIARMLELPTIYRKVYDQPFHSSALEKEEALSNPGALDLPSLTSLLSEKAKEFLMENRVQSFYQQELEMVESLLSLANQPVIHSASSDQVNFKKDTTSKAIHSIFKNAIQLLQEKGLVFQKDDGFDNLYYVTREDKDLHRKIHRIIQQDCQKPNHMEKGCHFLHILACARLSIRPGLSEAVLQQVLELLEDQSDIVSTMEHYYTAF [OBFC1]	-0.0863	0.0155
ZNF106	0.915	-1.19
